Details: Escherichia coli (strain K12), Thermal, CD, NaCl 0.1 M, reversible: yes, whole UniProt chain shown

B1: Ribonuclease HI wild type, P0A7Y4 (protein)
chain: MLKQVEIFTDGSCLGNPGPGGYGAILRYRGREKTFSAGYTRTTNNRMELMAAIVALEALKEHCEVILSTDSQYVRQGITQWIHNWKKRGWKTADKKPVKNVDLWQRLDAALGQHQIKWEWVKGHAGHPENERCDELARAAAMNPTLEDTGYQVEV
- Tm (pH 3, glycine-HCl 10 mM): 49.8 °C
- Tm (pH 5.5, Sodium acetate 20 mM): 52 °C
